# Data taken from publication PMC6844113.
# Substrate: Nc1ncnc2c1ncn2[C@@H]1O[C@H](COP(=O)(O)OP(=O)(O)OP(=O)(O)O)[C@@H](O)[C@H]1O
# Test: purified protein
# Type: biochemical, Homo sapiens
# Details: Mg2+
protein,measurement,value
human DNA topoisomerase IIα (Homo sapiens) (protein) MEVSPLQPVNENMQVNKIKKNEDAKKRLSVERIYQKKTQLEHILLRPDTYIGSVELVTQQMWVYDEDVGINYREVTFVPGLYKIFDEILVNAADNKQRDPKMSCIRVTIDPENNLISIWNNGKGIPVVEHKVEKMYVPALIFGQLLTSSNYDDDEKKVTGGRNGYGAKLCNIFSTKFTVETASREYKKMFKQTWMDNMGRAGEMELKPFNGEDYTCITFQPDLSKFKMQSLDKDIVALMVRRAYDIAGSTKDVKVFLNGNKLPVKGFRSYVDMYLKDKLDETGNSLKVIHEQVNHRWEVCLTMSEKGFQQISFVNSIATSKGGRHVDYVADQIVTKLVDVVKKKNKGGVAVKAHQVKNHMWIFVNALIENPTFDSQTKENMTLQPKSFGSTCQLSEKFIKAAIGCGIVESILNWVKFKAQVQLNKKCSAVKHNRIKGIPKLDDANDAGGRNSTECTLILTEGDSAKTLAVSGLGVVGRDKYGVFPLRGKILNVREASHKQIMENAEINNIIKIVGLQYKKNYEDEDSLKTLRYGKIMIMTDQDQDGSHIKGLLINFIHHNWPSLLRHRFLEEFITPIVKVSKNKQEMAFYSLPEFEEWKSSTPNHKKWKVKYYKGLGTSTSKEAKEYFADMKRHRIQFKYSGPEDDAAISLAFSKKQIDDRKEWLTNFMEDRRQRKLLGLPEDYLYGQTTTYLTYNDFINKELILFSNSDNERSIPSMVDGLKPGQRKVLFTCFKRNDKREVKVAQLAGSVAEMSSYHHGEMSLMMTIINLAQNFVGSNNLNLLQPIGQFGTRLHGGKDSASPRYIFTMLSSLARLLFPPKDDHTLKFLYDDNQRVEPEWYIPIIPMVLINGAEGIGTGWSCKIPNFDVREIVNNIRRLMDGEEPLPMLPSYKNFKGTIEELAPNQYVISGEVAILNSTTIEISELPVRTWTQTYKEQVLEPMLNGTEKTPPLITDYREYHTDTTVKFVVKMTEEKLAEAERVGLHKVFKLQTSLTCNSMVLFDHVGCLKKYDTVLDILRDFFELRLKYYGLRKEWLLGMLGAESAKLNNQARFILEKIDGKIIIENKPKKELIKVLIQRGYDSDPVKAWKEAQQKVPDEEENEESDNEKETEKSDSVTDSGPTFNYLLDMPLWYLTKEKKDELCRLRNEKEQELDTLKRKSPSDLWKEDLATFIEELEAVEAKEKQDEQVGLPGKGGKAKGKKTQMAEVLPSPRGQRVIPRITIEMKAEAEKKNKKKIKNENTEGSPQEDGVELEGLKQRLEKKQKREPGTKTKKQTTLAFKPIKKGKKRNPWSDSESDRSSDESNFDVPPRETEPRRAATKTKFTMDLDSDEDFSDFDEKTDDEDFVPSDASPPKTKTSPKLSNKELKPQKSVVSDLEADDVKGSVPLSSSPPATHFPDETEITNPVPKKNVTVKKTAAKSQSSTSTTGAKKRAAPKGTKRDPALNSGVSQKPDPAKTKNRRKRKPSTSDDSDSNFEKIVSKAVTSKKSKGESDDFHMDFDSAVAPRAKSVRAKKPIKYLEESDEDDLF,Km,220 ± 60 µM
